Data on 125 sequences can be found in the supplement of paper PMC9112550, “Optimization of the antimicrobial peptide Bac7 by deep mutational scanning” (BMC Biology, 2022).

The series deals with Escherichia coli TOP10. The series is described as follows: shrunken log2 fold change of peptide-encoding DNA abundance (4.5 h post-induction vs induction); higher = less antimicrobial activity (less host growth inhibition). Conditions: time post-induction: 4.5 h; library: site-saturation at positions 5, 18, 19, 20.
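Note: peptides expressed intracellularly from a pBAD plasmid library in pooled LB shake-flask culture, induced with 0.3% L-arabinose, DNA abundance read by NGS, three biological replicates, DESeq2 with apeglm shrinkage.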

Consider RRIRQRPPRLPRPRPRPMPQPRP, for which the “shrunken log2 fold change” value amounted to 0.00445.

For the sequence RRIRSRPPRLPRPRPRPAHDPRP, the “shrunken log2 fold change” value came to 0.162.

Turning to RRIRWRPPRLPRPRPRPDDDPRP, the “shrunken log2 fold change” value was determined as 3.98.

For RRIRHRPPRLPRPRPRPDMWPRP, the “shrunken log2 fold change” value is -0.175.

For the sequence RRIRIRPPRLPRPRPRPFNQPRP, the “shrunken log2 fold change” value was -0.977.

On to RRIRQRPPRLPRPRPRPAIDPRP, for which the “shrunken log2 fold change” value was 0.0942.

As for RRIRTRPPRLPRPRPRPCFRPRP, the “shrunken log2 fold change” value is -0.0887.

In the case of RRIRLRPPRLPRPRPRPYNYPRP, the “shrunken log2 fold change” value is -0.439.

For the sequence RRIRDRPPRLPRPRPRPLCFPRP, the “shrunken log2 fold change” value was found to be 0.0676.

For the sequence RRIRNRPPRLPRPRPRPMERPRP, the “shrunken log2 fold change” value turned out to be 0.019.

Take RRIRPRPPRLPRPRPRPIFNPRP: the “shrunken log2 fold change” value is -0.238.

On to RRIRFRPPRLPRPRPRPLGVPRP, for which the “shrunken log2 fold change” value was determined as 0.0349.

With RRIRCRPPRLPRPRPRPKVAPRP, the “shrunken log2 fold change” value was -0.118.

As to RRIRFRPPRLPRPRPRPPGPPRP, the “shrunken log2 fold change” value worked out at 0.897.

Regarding RRIRRRPPRLPRPRPRPQRYPRP, the “shrunken log2 fold change” value is -0.15.

With RRIRARPPRLPRPRPRPLQRPRP, the “shrunken log2 fold change” value came out at 0.58.

As to RRIRNRPPRLPRPRPRPFIYPRP, the “shrunken log2 fold change” value was -0.856.

RRIRVRPPRLPRPRPRPMKQPRP: the “shrunken log2 fold change” value was -0.0165.

Take RRIRWRPPRLPRPRPRPQQKPRP: the “shrunken log2 fold change” value is -0.0581.

As to RRIRIRPPRLPRPRPRPRNQPRP, the “shrunken log2 fold change” value is -0.542.

On to RRIRIRPPRLPRPRPRPTSTPRP, for which the “shrunken log2 fold change” value is -0.0986.

RRIRHRPPRLPRPRPRPLAHPRP: the “shrunken log2 fold change” value was determined as 0.0514.

On to RRIRCRPPRLPRPRPRPKMYPRP, for which the “shrunken log2 fold change” value was -0.342.

In the case of RRIRPRPPRLPRPRPRPLMGPRP, the “shrunken log2 fold change” value is -0.0395.

Consider RRIRGRPPRLPRPRPRPFDWPRP, for which the “shrunken log2 fold change” value worked out at 0.0459.

As to RRIRGRPPRLPRPRPRPGSSPRP, the “shrunken log2 fold change” value was 0.028.

Regarding RRIRWRPPRLPRPRPRPGDGPRP, the “shrunken log2 fold change” value came to 0.881.

For the sequence RRIRARPPRLPRPRPRPHQHPRP, the “shrunken log2 fold change” value was -0.109.

As to RRIRLRPPRLPRPRPRPPVQPRP, the “shrunken log2 fold change” value amounted to 0.553.

RRIRTRPPRLPRPRPRPVYQPRP: the “shrunken log2 fold change” value is -0.0843.

Turning to RRIRERPPRLPRPRPRPFCQPRP, the “shrunken log2 fold change” value was -0.528.

As to RRIRYRPPRLPRPRPRPRHQPRP, the “shrunken log2 fold change” value is -0.111.

As for RRIRSRPPRLPRPRPRPSKFPRP, the “shrunken log2 fold change” value was -0.779.

With RRIRIRPPRLPRPRPRPYQKPRP, the “shrunken log2 fold change” value is -0.243.

Turning to RRIRERPPRLPRPRPRPSQCPRP, the “shrunken log2 fold change” value is -0.0684.

For RRIRARPPRLPRPRPRPEYNPRP, the “shrunken log2 fold change” value came out at 0.102.

Regarding RRIRRRPPRLPRPRPRPKQPPRP, the “shrunken log2 fold change” value worked out at 0.0672.

As to RRIRERPPRLPRPRPRPTANPRP, the “shrunken log2 fold change” value was -0.154.

For the sequence RRIRTRPPRLPRPRPRPVRLPRP, the “shrunken log2 fold change” value was -0.0555.

As for RRIRCRPPRLPRPRPRPEQVPRP, the “shrunken log2 fold change” value was -0.0491.

For the sequence RRIRRRPPRLPRPRPRPSTCPRP, the “shrunken log2 fold change” value worked out at 0.0254.

With RRIRLRPPRLPRPRPRPYFGPRP, the “shrunken log2 fold change” value was -0.218.

Turning to RRIRQRPPRLPRPRPRPWRPPRP, the “shrunken log2 fold change” value was found to be 0.143.

Turning to RRIRARPPRLPRPRPRPDGWPRP, the “shrunken log2 fold change” value was 1.22.

For RRIRSRPPRLPRPRPRPVQLPRP, the “shrunken log2 fold change” value is 0.348.

As for RRIRKRPPRLPRPRPRPIHYPRP, the “shrunken log2 fold change” value was -0.15.

On to RRIRIRPPRLPRPRPRPMFDPRP, for which the “shrunken log2 fold change” value was -0.0483.

Turning to RRIRLRPPRLPRPRPRPSKGPRP, the “shrunken log2 fold change” value is -0.123.

As for RRIRCRPPRLPRPRPRPRITPRP, the “shrunken log2 fold change” value was -0.212.

Take RRIRTRPPRLPRPRPRPICAPRP: the “shrunken log2 fold change” value amounted to 0.0827.

RRIRFRPPRLPRPRPRPPPNPRP: the “shrunken log2 fold change” value was 1.33.

On to RRIRQRPPRLPRPRPRPLIRPRP, for which the “shrunken log2 fold change” value is -0.966.

As for RRIRDRPPRLPRPRPRPQWYPRP, the “shrunken log2 fold change” value was -0.45.

RRIRDRPPRLPRPRPRPVLRPRP: the “shrunken log2 fold change” value was -0.0147.

With RRIRRRPPRLPRPRPRPGDFPRP, the “shrunken log2 fold change” value amounted to 0.464.

RRIRFRPPRLPRPRPRPKRCPRP: the “shrunken log2 fold change” value was 0.383.

As to RRIRQRPPRLPRPRPRPPEKPRP, the “shrunken log2 fold change” value amounted to 0.917.

Regarding RRIRARPPRLPRPRPRPTQKPRP, the “shrunken log2 fold change” value was -0.0406.

As for RRIRPRPPRLPRPRPRPRWSPRP, the “shrunken log2 fold change” value amounted to 0.108.

Turning to RRIRSRPPRLPRPRPRPMKVPRP, the “shrunken log2 fold change” value was -0.0404.

On to RRIRTRPPRLPRPRPRPTRHPRP, for which the “shrunken log2 fold change” value was 0.237.

RRIRERPPRLPRPRPRPTWYPRP: the “shrunken log2 fold change” value is -0.217.

Regarding RRIRPRPPRLPRPRPRPHPQPRP, the “shrunken log2 fold change” value amounted to 0.238.

As to RRIRHRPPRLPRPRPRPSLRPRP, the “shrunken log2 fold change” value is -0.244.

As to RRIRIRPPRLPRPRPRPWNKPRP, the “shrunken log2 fold change” value was -0.0719.

For the sequence RRIRARPPRLPRPRPRPWWIPRP, the “shrunken log2 fold change” value is -0.0901.

Turning to RRIRRRPPRLPRPRPRPVHSPRP, the “shrunken log2 fold change” value was -0.0233.

Turning to RRIRARPPRLPRPRPRPFQCPRP, the “shrunken log2 fold change” value came to 0.0143.

For the sequence RRIRSRPPRLPRPRPRPCMAPRP, the “shrunken log2 fold change” value was -0.182.

For RRIRARPPRLPRPRPRPNPMPRP, the “shrunken log2 fold change” value turned out to be 0.287.

Take RRIRVRPPRLPRPRPRPNFAPRP: the “shrunken log2 fold change” value stood at 0.104.

On to RRIRYRPPRLPRPRPRPMPYPRP, for which the “shrunken log2 fold change” value is -0.0899.

RRIRHRPPRLPRPRPRPLKQPRP: the “shrunken log2 fold change” value was -0.128.

On to RRIRLRPPRLPRPRPRPGMCPRP, for which the “shrunken log2 fold change” value is -0.0891.

With RRIRRRPPRLPRPRPRPWIAPRP, the “shrunken log2 fold change” value is -0.00369.

Consider RRIRARPPRLPRPRPRPTWMPRP, for which the “shrunken log2 fold change” value came out at 0.221.

On to RRIRTRPPRLPRPRPRPVFKPRP, for which the “shrunken log2 fold change” value turned out to be 0.0882.

In the case of RRIRRRPPRLPRPRPRPEPIPRP, the “shrunken log2 fold change” value is 0.378.

RRIRHRPPRLPRPRPRPTCWPRP: the “shrunken log2 fold change” value was -0.0322.

Turning to RRIRDRPPRLPRPRPRPNGSPRP, the “shrunken log2 fold change” value was -0.0808.

Consider RRIRIRPPRLPRPRPRPRVAPRP, for which the “shrunken log2 fold change” value worked out at 0.386.

Take RRIRSRPPRLPRPRPRPKVAPRP: the “shrunken log2 fold change” value came to 0.509.

Take RRIRTRPPRLPRPRPRPMRNPRP: the “shrunken log2 fold change” value was determined as 0.356.

For the sequence RRIRERPPRLPRPRPRPIMTPRP, the “shrunken log2 fold change” value was -0.714.

With RRIRIRPPRLPRPRPRPQDQPRP, the “shrunken log2 fold change” value was -0.242.

Consider RRIRHRPPRLPRPRPRPYNWPRP, for which the “shrunken log2 fold change” value was -0.928.

With RRIRGRPPRLPRPRPRPTKWPRP, the “shrunken log2 fold change” value turned out to be 0.262.

Take RRIRNRPPRLPRPRPRPSSAPRP: the “shrunken log2 fold change” value is -0.0956.

Turning to RRIRIRPPRLPRPRPRPYMKPRP, the “shrunken log2 fold change” value is -0.495.

RRIRCRPPRLPRPRPRPHQSPRP: the “shrunken log2 fold change” value was -0.0603.

Take RRIRMRPPRLPRPRPRPMDHPRP: the “shrunken log2 fold change” value is -0.00783.

On to RRIRYRPPRLPRPRPRPVETPRP, for which the “shrunken log2 fold change” value is -0.0299.

Take RRIRSRPPRLPRPRPRPELNPRP: the “shrunken log2 fold change” value worked out at 0.399.

For RRIRNRPPRLPRPRPRPCKTPRP, the “shrunken log2 fold change” value was -0.129.

As for RRIRHRPPRLPRPRPRPQYTPRP, the “shrunken log2 fold change” value was -1.27.

For RRIRYRPPRLPRPRPRPPFRPRP, the “shrunken log2 fold change” value is -0.0932.

Take RRIRRRPPRLPRPRPRPQDIPRP: the “shrunken log2 fold change” value is -1.16.

Consider RRIRWRPPRLPRPRPRPAYRPRP, for which the “shrunken log2 fold change” value is -0.00641.

With RRIRQRPPRLPRPRPRPPWFPRP, the “shrunken log2 fold change” value is -0.018.

As for RRIRIRPPRLPRPRPRPKFTPRP, the “shrunken log2 fold change” value is -0.8.

As for RRIRFRPPRLPRPRPRPTVAPRP, the “shrunken log2 fold change” value is 0.226.

On to RRIRQRPPRLPRPRPRPVCHPRP, for which the “shrunken log2 fold change” value was -0.13.

For the sequence RRIRERPPRLPRPRPRPVLLPRP, the “shrunken log2 fold change” value is -0.388.

On to RRIRFRPPRLPRPRPRPWQHPRP, for which the “shrunken log2 fold change” value is -0.0848.

As to RRIRWRPPRLPRPRPRPFDGPRP, the “shrunken log2 fold change” value was -0.0363.

Take RRIRSRPPRLPRPRPRPRDPPRP: the “shrunken log2 fold change” value was 0.623.

Consider RRIRERPPRLPRPRPRPDKSPRP, for which the “shrunken log2 fold change” value was -1.19.

RRIRVRPPRLPRPRPRPWAFPRP: the “shrunken log2 fold change” value is -0.189.

As to RRIRQRPPRLPRPRPRPVWAPRP, the “shrunken log2 fold change” value was -0.468.

In the case of RRIRTRPPRLPRPRPRPLVTPRP, the “shrunken log2 fold change” value is -0.227.

In the case of RRIRGRPPRLPRPRPRPCLNPRP, the “shrunken log2 fold change” value was 0.165.

Consider RRIRQRPPRLPRPRPRPDSPPRP, for which the “shrunken log2 fold change” value stood at 0.0174.

With RRIRCRPPRLPRPRPRPFNSPRP, the “shrunken log2 fold change” value came to 0.101.

With RRIRPRPPRLPRPRPRPMHEPRP, the “shrunken log2 fold change” value worked out at 0.297.

For the sequence RRIRWRPPRLPRPRPRPYPVPRP, the “shrunken log2 fold change” value turned out to be 3.67.

For RRIRCRPPRLPRPRPRPCANPRP, the “shrunken log2 fold change” value amounted to 0.00335.

On to RRIRPRPPRLPRPRPRPIITPRP, for which the “shrunken log2 fold change” value was -0.587.

With RRIRGRPPRLPRPRPRPFWQPRP, the “shrunken log2 fold change” value was 0.467.

RRIRLRPPRLPRPRPRPVDYPRP: the “shrunken log2 fold change” value was -0.434.

For the sequence RRIRMRPPRLPRPRPRPRMMPRP, the “shrunken log2 fold change” value is 0.476.

Regarding RRIRVRPPRLPRPRPRPSQAPRP, the “shrunken log2 fold change” value was determined as 0.0916.

RRIRPRPPRLPRPRPRPNRQPRP: the “shrunken log2 fold change” value is -0.0342.

RRIRCRPPRLPRPRPRPIAGPRP: the “shrunken log2 fold change” value was 0.195.

As for RRIRQRPPRLPRPRPRPWNDPRP, the “shrunken log2 fold change” value was -0.373.

As to RRIRLRPPRLPRPRPRPMEIPRP, the “shrunken log2 fold change” value was -0.00427.
